The term IC50 denotes the concentration that inhibits the measured activity by half.

Experiment [1] has as its target T1, recombinant human LIGHT-214K, FLAG-tagged extracellular domain (human).
T1 construct: the IgK leader peptide is marked only by underlining (not visible here), so its residues were not removed; Trimer
T1 chain: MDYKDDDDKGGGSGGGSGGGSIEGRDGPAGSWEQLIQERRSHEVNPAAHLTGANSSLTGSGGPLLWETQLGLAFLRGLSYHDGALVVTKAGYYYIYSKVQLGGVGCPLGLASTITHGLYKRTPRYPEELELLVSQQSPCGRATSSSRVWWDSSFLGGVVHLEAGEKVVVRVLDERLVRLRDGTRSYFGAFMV
The experiment in a line: SPR ProteOn, mAb captured on anti-mouse IgG, LIGHT 256 nM, 25 C, apparent affinity. As to the method:
(§1) SPR analysis was carried out using the ProteOn™ XPR36 Array System (BioRad). Anti-mouse IgG (GE Healthcare BR-1008-38) was immobilised on a GLC biosensor surface using amine coupling, the surface was then blocked using 1M ethanolamine. […] Apparent affinities for the LIGHT-antibody interaction were determined using the 1:1 model inherent to the ProteOn XPR36 analysis software. The assay was run using HBS-EP (Teknova) as running buffer and carried out at 25° C.

The target of experiment [2] is T2, recombinant cynomolgus monkey LIGHT, FLAG-tagged extracellular domain (cynomolgus (Macaca fascicularis), UniProt E9NVF7 59-240).
T2 construct: extracellular domain; also called cynomolgus LIGHT; cyno LIGHT
Described as above. As to the method:
as §1
Target sequence in this assay (E9NVF7 entry or part of it): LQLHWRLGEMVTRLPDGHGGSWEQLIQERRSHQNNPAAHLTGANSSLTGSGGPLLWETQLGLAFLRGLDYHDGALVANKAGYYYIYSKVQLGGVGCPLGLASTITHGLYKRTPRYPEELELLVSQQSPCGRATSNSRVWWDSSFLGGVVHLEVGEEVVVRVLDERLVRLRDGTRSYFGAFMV

The target in experiment [3] is T3, recombinant human LIGHT-214E, FLAG-tagged extracellular domain (human).
T3 construct: Trimer; Biotinylated in some assays
T3 chain: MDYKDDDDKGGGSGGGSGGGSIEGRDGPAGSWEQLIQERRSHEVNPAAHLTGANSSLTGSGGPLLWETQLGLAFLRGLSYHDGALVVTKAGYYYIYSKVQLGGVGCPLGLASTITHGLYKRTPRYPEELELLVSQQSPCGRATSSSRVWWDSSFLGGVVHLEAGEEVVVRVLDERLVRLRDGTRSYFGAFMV
In words: HTRF competition, LTβR-Fc binding to Flag-hLIGHT-214E. As to the method: (§2) The following methods were carried out with a titration of inhibitor in order to establish the clone potency as measured by IC50 values in the assay. 5 μl of Flag-tagged hLIGHT (in-house) diluted to 2.5 nM final concentration (10 nM working concentration) in HTRF buffer with 5 μl of a titration of antibody purified from hybridoma supernatant diluted in HTRF assay buffer from 300 nM final (1200 nM working concentration) was pre-incubated for 1 hour at room temperature. To wells used to define total binding, 5 μl of LIGHT (10 nM working, 2.5 nM final) and 5 μl of hybridoma maintaining media (HMM,)) were added. To wells used to define non specific binding (receptor only) 10 μl of HMM was added. Total and non specific binding wells were pre-incubated for 1 hr at RT in the same plate as wells containing titration of inhibitor.
LIGHT receptor was diluted in HTRF assay buffer and added to all wells, 5 μl/well of HVEM-Fc or LTβR-Fc (R&D systems) at 1.2 nM for HVEM (0.3 nM final) and 0.4 nM for LTβR (0.1 nM final).

For experiment [4], the target named is T3, recombinant human LIGHT-214E, …. In words: HTRF competition, HVEM-Fc binding to Flag-hLIGHT-214E. As to the method: as §2
For orientation: In TR-FRET formats the signal depends on donor and acceptor labels being close together.

Experiment [5] concerns the target human LIGHT-214E, full length, expressed on the surface of CHO-S cells (human, UniProt O43557 1-240). The experiment in a line: FACS, CHO-S cells expressing hLIGHT-214E. In general terms: A flow cytometer gives signals particle by particle.
Experiment [6] addresses T4, mouse LIGHT (mouse, UniProt Q9QYH9 72-239, limits assumed).
T4 construct: also called murine LIGHT
T4 sequence (looked up): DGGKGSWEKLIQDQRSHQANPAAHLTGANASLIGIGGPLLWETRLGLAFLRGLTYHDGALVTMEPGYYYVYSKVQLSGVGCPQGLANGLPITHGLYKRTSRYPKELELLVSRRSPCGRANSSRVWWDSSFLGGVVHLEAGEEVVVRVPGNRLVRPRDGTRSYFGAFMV
In words: SPR ProteOn, mAb captured on anti-mouse IgG.

Experiment [7] has as its target T3, recombinant human LIGHT-214E, …. The experiment in a line: cell-based or functional assay.
The target in experiment [8] is T4, mouse LIGHT. In words: SPR ProteOn, mAb captured on anti-human IgG.
Experiment [9] has as its target T3, recombinant human LIGHT-214E, …. In words: HTRF competition, AlexaFluor 647 LTβR-Fc binding to Flag-hLIGHT-214E.
Experiment [10] has as its target T1, recombinant human LIGHT-214K, …. The experiment in a line: SPR ProteOn, mAb captured on anti-human IgG, 25 C, apparent affinity.
The target in experiment [11] is T3, recombinant human LIGHT-214E, …. The experiment in a line: HTRF competition, AlexaFluor 647 HVEM-Fc binding to Flag-hLIGHT-214E.
Experiment [12] has the same target. In words: cell-based or functional assay.
Experiment [13] deals with T5, rabbit LIGHT protein, FLAG-tagged extracellular domain (rabbit).
T5 chain: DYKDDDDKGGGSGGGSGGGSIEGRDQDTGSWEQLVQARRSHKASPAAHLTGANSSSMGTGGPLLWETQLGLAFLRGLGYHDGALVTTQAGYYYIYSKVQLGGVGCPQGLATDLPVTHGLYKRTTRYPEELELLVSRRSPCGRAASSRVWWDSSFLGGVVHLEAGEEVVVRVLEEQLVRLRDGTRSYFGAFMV
In words: SPR ProteOn, mAb captured on anti-human IgG, 25 C. On the procedure: This created a capture surface suitable for capturing human antibodies. The LIGHT antibodies were captured on this anti-human IgG surface, and then human and rabbit LIGHT proteins were passed over captured LIGHT Abs at a concentration of 200 nM. A buffer injection was used to double reference the LIGHT binding sensorgrams. The assay was run at 25° C., using HBS-EP as running buffer.

For experiment [14], the target named is T3, recombinant human LIGHT-214E, …. In words: HTRF competition, AlexaFluor 647 HVEM-Fc binding to Flag-hLIGHT-214E. On the procedure: as §2
(§3) The final IgG4(PE) format lead panel was analysed for neutralization activity as in Example 3. Antibodies were tested for their ability to neutralize LIGHT binding to its receptors, HVEM and LTβR, in an HTRF assay. Antibodies were also tested for their ability to neutralize LIGHT-induced IL-8 release by HT29 colon carcinoma cells.
(§4) HTRF assays were performed as per Example 3, with the following modifications: HVEM-Fc and LTβR-Fc were labelled with AlexaFluor 647, and an anti-Flag K antibody (Cisbio) was used for detection.

Experiment [15] has the same target. In words: SPR ProteOn, mAb captured on anti-human IgG, 37 C.
The target in experiment [16] is T1, recombinant human LIGHT-214K, …. The experiment in a line: SPR ProteOn, mAb captured on anti-human IgG, 37 C.
Experiment [17] deals with T2, recombinant cynomolgus monkey LIGHT, …. The experiment in a line: SPR ProteOn, mAb captured on anti-human IgG, 37 C.
The target in experiment [18] is T3, recombinant human LIGHT-214E, …. In words: HTRF competition, AlexaFluor 647 LTβR-Fc binding to Flag-hLIGHT-214E. As to the method: as §2, §3, §4
The target is the same in experiment [19]. The experiment in a line: SPR ProteOn, mAb captured on anti-mouse IgG, LIGHT 256 nM, 25 C, apparent affinity. On the procedure: as §1

Read-outs that look alike come from different tables or passages of the source.

B1: 18E04 (purified from hybridoma supernatant, mouse IgG) (antibody, V domains shown)
VH: QVLLVQSGAEVKKPGASVKVSCKASGYTFTHFDINWVRQATGQGLEWMGWMNPDSDNTDYAQEFQGRVTMTRDTSISTAYMELSSLRSEDTAVYYCARGGTTLDYWGQGTLVTVSS
VL: SYELTQPPSVSVSPGQTARITCSGDALPKKYAYWYQQKSGQAPVLVIYEDSKRPSGIPERFSGSSSGTMATLTISGAQVEDEADYYCYSTDSSDNHVIFGGGTKLTVL
notes: Murine C / human V chimeric IgG, lambda, purified from hybridoma supernatant
As to B1, the Kd in [1] came to 2.33 nM; in [2] it was 3.11 nM. The half-maximal inhibitory concentration (IC50) in experiment [3] worked out at 1.64 nM; in experiment [4], 1.32 nM. Also, the binding result is given as “binds” in experiment [5] and “no binding” in experiment [6]. The “HT29 IL-8 release, IC50” value in experiment [7] was determined as 0.327 nM.

B2: 01C06 in human IgG4(PE) format (antibody, V domains shown)
VH: QVQLVESGGGLVKPGGSLRLSCAASGFTFSDYYMNWIRQAPGKGLEWIADISSRDNTIYYADSVKGRFTISRDNAKNSLYLQMNSLRAEDTAVYYCARERGFGDYFGMDVWGQGTTVTVSS
VL: AIQLTQSPSSLSASVGDRVTIACRASQDISSALAWFRQTPGKTPKLLIYDASSLESGVPSRFLGSGSGTDFTLTISSLQPEDFAIYYCQQFNTYPLTFGGGTKVEIK
Consider B2, for which the binding result in [8] is “no binding”; in experiment [10], “binds”. Also, the figures for the IC50 in [9] and in experiment [11] were 2.07 nM and 0.698 nM, respectively. Also, the “HT29 IL-8 release, IC50” value in experiment [7] came to 0.556 nM.

B3: 13H04 in human IgG4(PE) format (antibody, V domains shown)
VH: QVQLVQSGAEVKKPGASVKVSCKASGYTFTSYGISWVRQAPGQGLEWMGWISAHNANTNYAQKLQGRVTMTTDTSTSTAYMELRSLRSDDTAMYYCARLYRNWFDPWGQGTLVTVSS
VL: QSALTQPASVSGSPGQSITISCTGTSSDVGGYNYVSWYQQHPGKAPKLMIYDVSKRPSGVSNRFSGSKSGNTASLTISGLQAEDEADYYCCSYAGSSTLLFGGGTKLTVL
Regarding B3, in [12], the “HT29 IL-8 release, IC50” value is 1.22 nM. Also, the binding result in experiment [13] is given as “binds”. Besides, the figures for the IC50 in experiment [14] and in experiment [18] were 1.29 nM and 3.15 nM, respectively. In addition, the Kd in [15] was 0.293 nM; in [16] it was 0.401 nM; in experiment [17] it was 0.207 nM.

B4: 98C07 in human IgG4(PE) format (antibody, V domains shown)
VH: QVQLVESGGGLVKPGGSLRLSCAASGFTFSDYYMSWIRQAPGKGLEWVSYISRSSFIYYSESVKGRFTISRDNAKNSLYLQMNSLRAEDTAVYYCARWELSPFDYWGQGTLVTVSS
VL: DIQMTQSPSSLSASVGDRVTITCRASQGISNYLAWFQQKPGKAPKSLIYAASSLQSGVPSKFSGSGSGTDFTLTISSLQPEDFATYFCQQYNTYPFTFGPGTKVDIK
Take B4: the “HT29 IL-8 release, IC50” value in [12] was 0.18 nM. Moreover, the binding result in experiment [13] is on record as “binds”. Also, the IC50 was 0.82 nM in experiment [14] and 1.62 nM in [18]. The figures for the Kd in experiment [15] and in experiment [17] were 0.018 nM and 0.202 nM, respectively.

B5: 98C07 (purified from hybridoma supernatant, mouse IgG) (antibody, V domains shown)
VH: QVQLVESGGGLVKPGGSLRLSCAASGFTFSDYYMSWIRQAPGKGLEWVSYISRSSFIYYSESVKGRFTISRDNAKNSLYLQMNSLRAEDTAVYYCARWELSPFDYWGQGTLVTVSS
VL: DIQMTQSPSSLSASVGDRVTITCRASQGISNYLAWFQQKPGKAPKSLIYAASSLQSGVPSKFSGSGSGTDFTLTISSLQPEDFATYFCQQYNTYPFTFGPGTKVDIK
notes: Murine C / human V chimeric IgG, kappa, purified from hybridoma supernatant
For the molecule B5, the Kd was 0.045 nM in [19], 296 nM in [1] and 0.257 nM in [2]. The figures for the IC50 in [3] and in experiment [4] were 2.06 nM and 1.08 nM, respectively. Besides, the binding result in [5] is “binds”; in experiment [6] it was “no binding”. For the same molecule, the “HT29 IL-8 release, IC50” value in experiment [7] stood at 0.166 nM.

B6: 01C02 in human IgG4(PE) format (antibody, V domains shown)
VH: QVQLVQSGAEVQKPGASVMVSCKASGYTFTYYGISWVRQAPGQGLEWMGWISANSGNTNYAQKFQGRVTMTTDTSTNTAYMELRSLRTDDTAVYYCAKGGVAVLEYWGQGTLVTVSS
VL: DIQLTQSPSFLSASVGDRVTITCWASQGISSYLAWYQQKPGKAPNLLIYVASTLQSGVPSRFSGSGSGTEFTLTISSLQPEDFATYYCQQLKIYPLTFGGGTKVEIK
With B6, the results for the binding result in experiment [8] and in experiment [13] were “no binding” and “binds”, respectively. Besides, the 50% inhibitory concentration (IC50) was determined as 3.48 nM in [9], 1.64 nM in experiment [14], 3.48 nM in [18] and 1.64 nM in experiment [11]. Further, the figures for the “HT29 IL-8 release, IC50” value in [12] and in experiment [7] were 0.26 nM and 0.261 nM, respectively. In addition, the Kd in experiment [16] was 0.822 nM.

(Values after patent US20170320956A1 (KYMAB, published 2017).)
